Here are results for 32 molecules from patent US20240368267A1 (KODIAK SCIENCES, published 2024).

To fix the notation:
B1: anti-IL-6 antibody, heavy chain I51A, G66D / light chain WT (antibody, human IgG1, V domains shown)
VH: EVQLVESGGGLVQPGGSLRLSCAASGFTFSPFAMSWVRQAPGKGLEWVAKASPGGSWTYYSDTVTDRFTFSLDTSKSTAYLQMNSLRAEDTAVYYCARQLWGYYALDIWGQGTLVTVSS
VL: DIQLTQSPSSLSASVGDRVTITCSASISVSYMYWYQQKPGKAPKLLIYDMSNLASGVPSRFSGSGSGTDFTLTISSLQPEDFATYYCMQWSGYPYTFGQGTKVEIK
notes: Derived as m2; Engineered human IgG1
B2: anti-IL-6 antibody, heavy chain I51W, G66D / light chain WT (antibody, human IgG1, V domains shown)
VH: B1 VH with A51W
VL: B1 VL
notes: as for B1
B3: anti-IL-6 antibody, heavy chain I51K, G66D / light chain WT (antibody, human IgG1, V domains shown)
VH: B1 VH with A51K
VL: B1 VL
notes: as for B1
B4: anti-IL-6 antibody, heavy chain S35E, G66D / light chain WT (antibody, human IgG1, V domains shown)
VH: B1 VH with S35E, A51I
VL: B1 VL
notes: as for B1
B5: anti-IL-6 antibody, heavy chain S35T, G66D / light chain WT (antibody, human IgG1, V domains shown)
VH: B1 VH with S35T, A51I
VL: B1 VL
notes: as for B1
B6: anti-IL-6 antibody, heavy chain S35D, G66D / light chain WT (antibody, human IgG1, V domains shown)
VH: B1 VH with S35D, A51I
VL: B1 VL
notes: as for B1
B7: anti-IL-6 antibody, heavy chain I51R, G66D / light chain WT (antibody, human IgG1, V domains shown)
VH: B1 VH with A51R
VL: B1 VL
notes: as for B1
B8: anti-IL-6 antibody, heavy chain S35A, G66D / light chain WT (antibody, human IgG1, V domains shown)
VH: B1 VH with S35A, A51I
VL: B1 VL
notes: as for B1
B9: anti-IL-6 antibody, heavy chain I51T, G66D / light chain WT (antibody, human IgG1, V domains shown)
VH: B1 VH with A51T
VL: B1 VL
notes: as for B1
B10: anti-IL-6 antibody, heavy chain S35W, G66D / light chain WT (antibody, human IgG1, V domains shown)
VH: B1 VH with S35W, A51I
VL: B1 VL
notes: as for B1
B11: anti-IL-6 antibody, heavy chain I51L, G66D / light chain WT (antibody, human IgG1, V domains shown)
VH: B1 VH with A51L
VL: B1 VL
notes: as for B1
B12: anti-IL-6 antibody, heavy chain T63A, G66D / light chain WT (antibody, human IgG1, V domains shown)
VH: B1 VH with A51I, T63A
VL: B1 VL
notes: as for B1
B13: anti-IL-6 antibody, heavy chain S35P, G66D / light chain WT (antibody, human IgG1, V domains shown)
VH: B1 VH with S35P, A51I
VL: B1 VL
notes: as for B1
B14: anti-IL-6 antibody, heavy chain S35Q, G66D / light chain WT (antibody, human IgG1, V domains shown)
VH: B1 VH with S35Q, A51I
VL: B1 VL
notes: as for B1
B15: anti-IL-6 antibody, heavy chain I51E, G66D / light chain WT (antibody, human IgG1, V domains shown)
VH: B1 VH with A51E
VL: B1 VL
notes: as for B1
B16: anti-IL-6 antibody, heavy chain I51H, G66D / light chain WT (antibody, human IgG1, V domains shown)
VH: B1 VH with A51H
VL: B1 VL
notes: as for B1
B17: anti-IL-6 antibody, heavy chain I51V, G66D / light chain WT (antibody, human IgG1, V domains shown)
VH: B1 VH with A51V
VL: B1 VL
notes: as for B1
B18: anti-IL-6 antibody, heavy chain S35L, G66D / light chain WT (antibody, human IgG1, V domains shown)
VH: B1 VH with S35L, A51I
VL: B1 VL
notes: as for B1
B19: anti-IL-6 antibody, heavy chain S35Y, G66D / light chain WT (antibody, human IgG1, V domains shown)
VH: B1 VH with S35Y, A51I
VL: B1 VL
notes: as for B1
B20: anti-IL-6 antibody, heavy chain I51Q, G66D / light chain WT (antibody, human IgG1, V domains shown)
VH: B1 VH with A51Q
VL: B1 VL
notes: as for B1
B21: anti-IL-6 antibody, heavy chain S35K, G66D / light chain WT (antibody, human IgG1, V domains shown)
VH: B1 VH with S35K, A51I
VL: B1 VL
notes: as for B1
B22: anti-IL-6 antibody, heavy chain I51Y, G66D / light chain WT (antibody, human IgG1, V domains shown)
VH: B1 VH with A51Y
VL: B1 VL
notes: as for B1
B23: anti-IL-6 antibody, heavy chain S35I, G66D / light chain WT (antibody, human IgG1, V domains shown)
VH: B1 VH with S35I, A51I
VL: B1 VL
notes: as for B1
B24: anti-IL-6 antibody, heavy chain T63D, G66D / light chain WT (antibody, human IgG1, V domains shown)
VH: B1 VH with A51I, T63D
VL: B1 VL
notes: as for B1
B25: anti-IL-6 antibody, heavy chain I51F, G66D / light chain WT (antibody, human IgG1, V domains shown)
VH: B1 VH with A51F
VL: B1 VL
notes: as for B1
B26: anti-IL-6 antibody, heavy chain S35G, G66D / light chain WT (antibody, human IgG1, V domains shown)
VH: B1 VH with S35G, A51I
VL: B1 VL
notes: as for B1
B27: anti-IL-6 antibody, heavy chain I51S, G66D / light chain WT (antibody, human IgG1, V domains shown)
VH: B1 VH with A51S
VL: B1 VL
notes: as for B1
B28: anti-IL-6 antibody, heavy chain S35V, G66D / light chain WT (antibody, human IgG1, V domains shown)
VH: B1 VH with S35V, A51I
VL: B1 VL
notes: as for B1
B29: anti-IL-6 antibody, heavy chain S35F, G66D / light chain WT (antibody, human IgG1, V domains shown)
VH: B1 VH with S35F, A51I
VL: B1 VL
notes: as for B1
B30: anti-IL-6 antibody, heavy chain I51D, G66D / light chain WT (antibody, human IgG1, V domains shown)
VH: B1 VH with A51D
VL: B1 VL
notes: as for B1
B31: anti-IL-6 antibody, heavy chain I51G, G66D / light chain WT (antibody, human IgG1, V domains shown)
VH: B1 VH with A51G
VL: B1 VL
notes: as for B1
B32: anti-IL-6 antibody, heavy chain I51P, G66D / light chain WT (antibody, human IgG1, V domains shown)
VH: B1 VH with A51P
VL: B1 VL
notes: as for B1

Residue numbers refer to the chain shown, from its start. Names and notes keep the numbering of the source.

For the experiment, the target named is T1, human IL-6 (human, UniProt P05231 30-212).
T1 construct: also called interleukin-6
T1 sequence (P05231 30-212 limits assumed): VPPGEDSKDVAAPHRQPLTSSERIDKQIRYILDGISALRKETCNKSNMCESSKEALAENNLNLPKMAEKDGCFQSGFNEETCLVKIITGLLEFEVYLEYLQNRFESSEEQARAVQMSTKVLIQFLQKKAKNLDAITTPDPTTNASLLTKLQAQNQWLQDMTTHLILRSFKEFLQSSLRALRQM
The experiment in a line: SPR (Biacore T200), antibody from cell supernatant captured on Protein A, IL-6 flowed over, 37 C. Here is the method:
Those four positions were selected based on their tolerance for mutations as observed in bacterial and mammalian screens. […] These cultures were centrifuged and supernatants containing secreted antibodies were harvested and diluted in HBS-EP+ running buffer (1:20 ratio).
Antibodies were captured on a Protein A chip (GE) by injecting 1:20 cell supernatant dilutions at 10 μL/min for 60 seconds. […] The sensor chip was regenerated by a 60 seconds injection of 10 mM Glycine pH 1.7 at the flow rate of […]. […] For this setup, 1 μg/mL of purified antibody was injected over a Protein A chip at 10 μL/min for 25 seconds. […] The sensor chip was regenerated by a 60 seconds injection of 10 mM Glycine pH 1.7 at flow rate of 50 μL/min. Data analysis for supernatant and purified samples were performed using BIAevaluation software (GE). All sensorgrams were double reference subtracted and fit using a 1:1 Langmuir binding model.
Background: In SPR one partner is held on a chip, and binding of the other changes the refractive index at the surface.
As a reminder, the Kd is the concentration at which binding is half-saturated. For orientation: koff means the rate constant with which the complex falls apart. Low readings indicate slow dissociation, high ones fast dissociation. A word on the kon: it is a measure of how fast the partners come together. A high value points to faster complex formation. On to B1, for which the affinity, expressed as Kd, was 0.327 nM; the dissociation rate constant (koff) was found to be 0.000576 s⁻¹; the kon worked out at 1.76e+06 M⁻¹ s⁻¹.

The molecule B2 returned a Kd of 4.93 nM, a koff of 0.00943 s⁻¹ and a kon of 1.91e+06 M⁻¹ s⁻¹.

B3 yielded a Kd of 0.291 nM, a koff of 0.000402 s⁻¹ and a kon of 1.38e+06 M⁻¹ s⁻¹.

B4 yielded a Kd of 0.582 nM, an off-rate constant (koff) of 0.000509 s⁻¹ and a kon of 874000 M⁻¹ s⁻¹.

On to B5, for which the Kd was 0.297 nM, the koff was 0.000409 s⁻¹ and the kon was found to be 1.38e+06 M⁻¹ s⁻¹.

For B6, binding was characterised by a dissociation constant (Kd) of 0.321 nM, the koff came out at 0.000641 s⁻¹ and the kon is 2e+06 M⁻¹ s⁻¹.

In turn, B7 showed a Kd of 0.169 nM, a koff of 0.000202 s⁻¹ and a kon of 1.2e+06 M⁻¹ s⁻¹.

B8 displayed a Kd of 0.3 nM, an off-rate constant (koff) of 0.000494 s⁻¹ and a kon of 1.65e+06 M⁻¹ s⁻¹.

With B9, the dissociation constant (Kd) was found to be 0.232 nM, the koff was 0.000415 s⁻¹ and the kon turned out to be 1.79e+06 M⁻¹ s⁻¹.

In the case of B10, the Kd stood at 23.5 nM, the off-rate constant (koff) is 0.00217 s⁻¹ and the kon amounted to 92300 M⁻¹ s⁻¹.

B11 returned a Kd of 0.386 nM, a koff of 0.000733 s⁻¹ and a kon of 1.9e+06 M⁻¹ s⁻¹.

Take B12: the Kd came to 0.177 nM, the off-rate constant (koff) was 0.000496 s⁻¹ and the kon is 2.8e+06 M⁻¹ s⁻¹.

B13: the affinity, expressed as Kd, was 11.9 nM; the koff came out at 0.00123 s⁻¹; the kon stood at 103000 M⁻¹ s⁻¹.

B14 had a Kd of 0.302 nM, a koff of 0.000395 s⁻¹ and an on-rate constant (kon) of 1.31e+06 M⁻¹ s⁻¹.

Turning to B15, binding was put at a Kd of 1.01 nM, the koff worked out at 0.00076 s⁻¹ and the kon is 754000 M⁻¹ s⁻¹.

As to B16, binding was put at a Kd of 0.348 nM, the koff amounted to 0.000529 s⁻¹ and the kon worked out at 1.52e+06 M⁻¹ s⁻¹.

On to B17, for which binding was characterised by a dissociation constant (Kd) of 0.00369 nM, the koff stood at 6.68e-06 s⁻¹ and the kon stood at 1.81e+06 M⁻¹ s⁻¹.

B18 showed a dissociation constant Kd of 0.315 nM, a koff of 0.000351 s⁻¹ and a kon of 1.11e+06 M⁻¹ s⁻¹.

For B19, binding was characterised by a dissociation constant (Kd) of 0.503 nM, the koff amounted to 0.000551 s⁻¹ and the kon stood at 1.1e+06 M⁻¹ s⁻¹.

As to B20, the Kd amounted to 0.336 nM, the koff is 0.000648 s⁻¹ and the kon was determined as 1.93e+06 M⁻¹ s⁻¹.

B21 yielded a Kd of 0.557 nM, an off-rate (koff) of 0.000949 s⁻¹ and a kon of 1.7e+06 M⁻¹ s⁻¹.

The molecule B22 showed a Kd of 3.45 nM, a koff of 0.0051 s⁻¹ and an on-rate constant (kon) of 1.48e+06 M⁻¹ s⁻¹.

On to B23, for which binding was put at a Kd of 0.334 nM, the koff was found to be 0.000376 s⁻¹ and the kon was found to be 1.12e+06 M⁻¹ s⁻¹.

In turn, B24 had a Kd of 0.204 nM, a koff of 0.000392 s⁻¹ and a kon of 1.92e+06 M⁻¹ s⁻¹.

Molecule B25 gave a dissociation constant (Kd) of 2.24 nM, a koff of 0.00305 s⁻¹ and a kon of 1.36e+06 M⁻¹ s⁻¹.

As to B26, the Kd worked out at 0.284 nM, the koff came to 0.00036 s⁻¹ and the kon turned out to be 1.27e+06 M⁻¹ s⁻¹.

Regarding B27, the Kd came out at 0.191 nM, the dissociation rate constant (koff) stood at 0.000362 s⁻¹ and the kon came out at 1.89e+06 M⁻¹ s⁻¹.

Molecule B28 came in with a Kd of 0.414 nM, a koff of 0.000469 s⁻¹ and a kon of 1.13e+06 M⁻¹ s⁻¹.

For the molecule B29, the equilibrium dissociation constant (Kd) is 0.749 nM, the off-rate constant (koff) worked out at 0.00119 s⁻¹ and the kon was 1.59e+06 M⁻¹ s⁻¹.

In turn, B30 yielded a Kd of 2.69 nM, a dissociation rate constant (koff) of 0.00267 s⁻¹ and a kon of 991000 M⁻¹ s⁻¹.

As to B31, binding was characterised by a dissociation constant (Kd) of 0.428 nM, the koff amounted to 0.000581 s⁻¹ and the kon is 1.36e+06 M⁻¹ s⁻¹.

On to B32, for which binding was put at a Kd of 387 nM, the off-rate constant (koff) turned out to be 0.00612 s⁻¹ and the kon was 15800 M⁻¹ s⁻¹.
